Reference: US20230212543

Columns and labels:
[1] = target: T1, TNFαR (the TNFα binding part of etanercept), P20333
T1 chain: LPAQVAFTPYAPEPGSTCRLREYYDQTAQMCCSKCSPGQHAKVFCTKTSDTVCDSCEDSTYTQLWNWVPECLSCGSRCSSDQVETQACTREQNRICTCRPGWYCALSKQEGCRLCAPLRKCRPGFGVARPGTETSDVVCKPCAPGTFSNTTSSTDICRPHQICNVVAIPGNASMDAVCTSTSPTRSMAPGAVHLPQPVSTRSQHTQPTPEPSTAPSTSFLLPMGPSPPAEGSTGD

[2] = target: Etanercept (native, fully glycosylated)
[3] = target: Asialylated etanercept (etanercept treated with sialidase)
[4] = target: Asialylated Abatacept

B1: LS (O-glycoprotein-specific endoprotease encoded by the Amuc1119 gene of Akkermansia muciniphila, with N-terminal Met and C-terminal GSG-His6) (protein)
chain: MEVTVPDALKDRIALKKTARQLNIVYFLGSDTEPVPDYERRLSELLLYLQQFYGKEMQRHGYGARSFGLDIKSPGRVNIIEYKAKNPAAHYPYENGGGWKAAQELDEFFKAHPDRKKSQHTLIIMPTWNDEKNGPDNPGGVPFYGMGRNCFALDYPAFDIKHLGQKTREGRLLTKWYGGMAHELGHGLNLPHNHQTASDGKKYGTALMGSGNYTFGTSPTFLTPASCALLDACEVFSVTPSQQFYEGKPEVEVGDVAISFKGDQILVSGNYKSPQTVKALNVYIQDPPYAVNQDYDAVSFSRRLGKKSGKFSMKIDKKELEGLNNNEFRISLMFILANGLHMQKHFTFHWDALQDYRDGSKSGSGHHHHHH
hydrolysis of substrate, SDS-PAGE [1]: LS had activity in all samples except those treated with O-glycosidase.
hydrolysis of substrate, SDS-PAGE [2]: full hydrolysis after overnight incubation
hydrolysis and release from double-mutant resin, SDS-PAGE [3]: could be hydrolyzed and eluted from the double-mutant-resin by LS in 6 h but had a slightly more complete elution after 24 h
hydrolysis of substrate, SDS-PAGE [3]: LS was able to hydrolyze etanercept in the presence of sialidase
hydrolysis and release from double-mutant resin, SDS-PAGE [4]: could be hydrolyzed and eluted from the double-mutant-resin by LS in 6 h but had a slightly more complete elution after 24 h
